In patent publication US20200283478A1 (Genentech, published 2020):
Bridge positions count the residues as written; N and C are the ends. * marks the point of attachment. Fmoc = O=C(OCC1c2ccccc2-c2ccccc21)*; Pentanoyl = CCCCC(=O)*

Tests used:
[1] = biological target: T1, His-tagged, full-length PCSK9 (human, UniProt Q8NBP7 31-692); assay: TR-FRET competition (PCSK9/EGF(A) assay); competitor EGF(A)-Fc;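 note: proximity signal from anti-His APC on PCSK9 paired with anti-Fc europium on the Fc ligand, read as normalized TR-FRET ratio across compound dilutions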
T1 construct: secreted PCSK9 is autocatalytically cleaved into prodomain and catalytic domain + CRD (from S153), which stay associated; also called His-PCSK9; proprotein convertase subtilisin/kexin type 9; not shown: His tag
T1 sequence (Q8NBP7 31-692 limits assumed): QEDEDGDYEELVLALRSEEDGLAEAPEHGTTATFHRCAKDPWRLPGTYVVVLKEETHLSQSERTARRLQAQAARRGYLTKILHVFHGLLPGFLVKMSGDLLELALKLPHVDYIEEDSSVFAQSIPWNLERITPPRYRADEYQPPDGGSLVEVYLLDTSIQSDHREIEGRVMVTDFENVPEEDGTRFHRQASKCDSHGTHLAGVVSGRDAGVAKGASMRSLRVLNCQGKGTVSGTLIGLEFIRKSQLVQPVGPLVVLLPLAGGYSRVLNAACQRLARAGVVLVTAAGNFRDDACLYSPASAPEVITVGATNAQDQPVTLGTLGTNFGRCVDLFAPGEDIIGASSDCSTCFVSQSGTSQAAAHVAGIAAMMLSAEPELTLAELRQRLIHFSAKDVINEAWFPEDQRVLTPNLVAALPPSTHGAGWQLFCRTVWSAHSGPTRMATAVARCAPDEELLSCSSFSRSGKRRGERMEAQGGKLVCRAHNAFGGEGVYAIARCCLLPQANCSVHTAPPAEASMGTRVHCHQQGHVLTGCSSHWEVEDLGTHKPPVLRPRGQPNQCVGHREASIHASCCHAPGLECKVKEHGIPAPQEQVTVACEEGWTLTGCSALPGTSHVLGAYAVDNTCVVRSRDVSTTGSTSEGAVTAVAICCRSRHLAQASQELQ

[2] = biological target: T2, His-tagged PCSK9Δhelix (human, UniProt Q8NBP7 31-152; Q8NBP7 168-692); assay: TR-FRET competition (PCSK9Δhelix/Ab20 assay); competitor Ab20
T2 construct: Human PCSK9 M1-Q692 with an engineered TEV site, cut by TEV protease; new N-terminus of the catalytic domain is S-A168; also called His-PCSK9Δhelix; not shown: His tag
T2 sequence (Q8NBP7 31-152, stated change not applied, chain 1 of 2): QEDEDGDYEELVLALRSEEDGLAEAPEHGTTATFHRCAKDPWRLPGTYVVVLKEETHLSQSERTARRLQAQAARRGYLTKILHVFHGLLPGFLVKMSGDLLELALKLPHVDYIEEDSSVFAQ
T2 sequence (Q8NBP7 other isoform, or with tags, fused parts or gaps mutant, chain 2 of 2): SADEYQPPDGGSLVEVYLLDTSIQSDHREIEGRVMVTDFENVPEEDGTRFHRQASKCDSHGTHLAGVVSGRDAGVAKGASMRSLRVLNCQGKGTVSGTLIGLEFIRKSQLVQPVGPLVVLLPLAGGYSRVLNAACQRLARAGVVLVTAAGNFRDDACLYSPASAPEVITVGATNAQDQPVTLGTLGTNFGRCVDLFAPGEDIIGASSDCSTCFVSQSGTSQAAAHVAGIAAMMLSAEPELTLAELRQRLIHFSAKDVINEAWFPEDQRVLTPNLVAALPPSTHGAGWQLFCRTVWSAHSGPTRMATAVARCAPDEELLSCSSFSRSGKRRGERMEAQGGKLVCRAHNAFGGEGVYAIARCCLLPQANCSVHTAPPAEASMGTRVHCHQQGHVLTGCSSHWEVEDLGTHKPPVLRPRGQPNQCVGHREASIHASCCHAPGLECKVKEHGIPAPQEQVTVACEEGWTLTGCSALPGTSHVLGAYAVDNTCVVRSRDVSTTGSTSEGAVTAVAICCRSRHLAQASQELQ

[3] = biological target: T3, PCSK9Δhelix (human, Chemically biotinylated in the phage ELISAs; the site is not given.); assay: phage spot ELISA
T3 construct: construct M1-Q692 with engineered TEV site, cleaved by TEV; also called His-PCSK9Δhelix; open groove PCSK9Δhelix
T3 sequence (prodomain, as listed by the source mutant limits assumed, chain 1 of 2): as the sequence (Q8NBP7 31-152, stated change not applied, chain 1 of 2) above
T3 sequence (chain, as listed by the source mutant limits assumed, chain 2 of 2): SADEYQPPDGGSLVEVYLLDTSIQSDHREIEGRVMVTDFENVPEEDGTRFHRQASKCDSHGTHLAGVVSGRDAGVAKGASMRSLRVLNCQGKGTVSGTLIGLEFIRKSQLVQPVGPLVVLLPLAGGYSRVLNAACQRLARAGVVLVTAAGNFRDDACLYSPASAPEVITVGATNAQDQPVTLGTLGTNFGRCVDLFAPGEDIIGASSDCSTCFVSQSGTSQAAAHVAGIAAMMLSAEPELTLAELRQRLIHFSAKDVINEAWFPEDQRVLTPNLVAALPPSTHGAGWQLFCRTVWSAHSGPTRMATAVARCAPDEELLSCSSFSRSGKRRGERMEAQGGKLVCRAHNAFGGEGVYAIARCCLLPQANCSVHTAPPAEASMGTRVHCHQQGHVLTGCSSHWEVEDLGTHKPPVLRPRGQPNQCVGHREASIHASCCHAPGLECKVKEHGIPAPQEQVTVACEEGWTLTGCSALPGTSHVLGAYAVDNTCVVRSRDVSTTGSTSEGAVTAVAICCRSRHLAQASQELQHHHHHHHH

[4] = biological target: T4, proprotein convertase subtilisin/kexin type 9 (PCSK9) (human, UniProt Q8NBP7 31-692); assay: phage spot ELISA
T4 construct: His-tagged full-length PCSK9 in TR-FRET and SPR, biotinylated in phage ELISA; secreted protein is autoprocessed (prodomain plus catalytic/CRD chain starting at S153); also called rec.PCSK9; His-PCSK9
T4 sequence (Q8NBP7 other isoform, or with tags, fused parts or gaps limits assumed): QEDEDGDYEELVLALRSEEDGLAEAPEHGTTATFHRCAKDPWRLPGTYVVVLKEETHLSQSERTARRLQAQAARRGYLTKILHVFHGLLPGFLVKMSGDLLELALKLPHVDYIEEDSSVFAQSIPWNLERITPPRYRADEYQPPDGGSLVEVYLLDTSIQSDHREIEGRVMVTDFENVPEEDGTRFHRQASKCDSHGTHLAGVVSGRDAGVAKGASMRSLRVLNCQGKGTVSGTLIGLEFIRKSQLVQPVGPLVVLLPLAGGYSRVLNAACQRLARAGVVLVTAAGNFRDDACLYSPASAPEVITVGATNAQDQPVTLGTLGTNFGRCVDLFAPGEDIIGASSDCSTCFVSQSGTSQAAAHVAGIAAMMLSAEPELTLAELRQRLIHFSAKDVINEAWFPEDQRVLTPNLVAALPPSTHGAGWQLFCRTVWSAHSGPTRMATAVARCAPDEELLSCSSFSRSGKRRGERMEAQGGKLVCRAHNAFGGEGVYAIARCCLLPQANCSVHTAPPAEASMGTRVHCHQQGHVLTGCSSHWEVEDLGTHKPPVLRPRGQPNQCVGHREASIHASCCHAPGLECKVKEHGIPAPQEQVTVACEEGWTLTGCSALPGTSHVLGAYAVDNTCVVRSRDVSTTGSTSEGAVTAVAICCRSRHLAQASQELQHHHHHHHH

[5] = biological target: T5, PCSK9Δhelix (human, UniProt Q8NBP7 31-152; Q8NBP7 168-692); assay: TR-FRET competition; competitor Ab20 binding to His-PCSK9Δhelix;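 note: readout is anti-His-APC on PCSK9 with anti-Fc-europium on the Fc-tagged ligand, compound incubated 30 min, normalized signal ratio fitted by four-parameter logistic regression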
T5 construct: Made by TEV cleavage of human PCSK9 M1-Q692 with an engineered TEV site; The new N-terminus of the catalytic domain is S-A168; also called His-PCSK9Δhelix; PCSK9 lacking the P' helix
T5 sequence (Q8NBP7 31-152, stated change not applied, chain 1 of 2): as the sequence (Q8NBP7 31-152, stated change not applied, chain 1 of 2) above
T5 sequence (Q8NBP7 other isoform, or with tags, fused parts or gaps mutant, chain 2 of 2): as the sequence (Q8NBP7 other isoform, or with tags, fused parts or gaps mutant, chain 2 of 2) above

[6] = biological target: T6, PCSK9 (proprotein convertase subtilisin/kexin type 9), His-tagged, full-length (human, UniProt Q8NBP7 31-692); assay: TR-FRET competition; competitor EGF(A)-Fc binding to His-PCSK9
T6 construct: Captured by the His tag (SPR Methods 1 and 2), amine-coupled (Method 3), or His-tagged in TR-FRET; also called His-PCSK9
T6 sequence (Q8NBP7 31-692 limits assumed): as the sequence (Q8NBP7 31-692 limits assumed) above

B1: Compound 98 (Fmoc-GSG-CWNLKRIGSQGC-NH2) (peptide)
peptide: Fmoc-GSGCWNLKRIGSQGC-NH2
modifications: disulfide 4-15
SMILES: CC[C@H](C)[C@@H]1NC(=O)[C@H](CCCNC(=N)N)NC(=O)[C@H](CCCCN)NC(=O)[C@H](CC(C)C)NC(=O)[C@H](CC(N)=O)NC(=O)[C@H](Cc2c[nH]c3ccccc23)NC(=O)[C@@H](NC(=O)CNC(=O)[C@H](CO)NC(=O)CNC(=O)OCC2c3ccccc3-c3ccccc32)CSSC[C@@H](C(N)=O)NC(=O)CNC(=O)[C@H](CCC(N)=O)NC(=O)[C@H](CO)NC(=O)CNC1=O
IC50 [1]: 37.6 µM | IC50 [2]: 3.6 µM

SGHASKGMVLSG [SEQ ID NO 381]
ELISA [3]: 1.64 | s/n [3]: 7.52 | ELISA [4]: 2.49 | s/n [4]: 15.5

SGGSIPWNLERITPPR [SEQ ID NO 382]
ELISA [3]: 1.64 | s/n [3]: 9.01 | ELISA [4]: 1.41 | s/n [4]: 5.32

Ac-DLMPWNLVRIGLL-NH2 [Compound 46]
IC50 [5]: 14 µM | IC50 [6]: > 50 µM

B2: Compound 39 (Ac-CWNLKRIGSQGCW-NH2) (peptide)
peptide: Ac-CWNLKRIGSQGCW-NH2
modifications: disulfide 1-12
SMILES: CC[C@H](C)[C@@H]1NC(=O)[C@H](CCCNC(=N)N)NC(=O)[C@H](CCCCN)NC(=O)[C@H](CC(C)C)NC(=O)[C@H](CC(N)=O)NC(=O)[C@H](Cc2c[nH]c3ccccc23)NC(=O)[C@@H](NC(C)=O)CSSC[C@@H](C(=O)N[C@@H](Cc2c[nH]c3ccccc23)C(N)=O)NC(=O)CNC(=O)[C@H](CCC(N)=O)NC(=O)[C@H](CO)NC(=O)CNC1=O
IC50 [1]: > 50 µM | IC50 [2]: 37.5 µM

B3: Compound 112 (peptide)
peptide: Pentanoyl-WNLVRIGLTR-NH2
SMILES: CCCCC(=O)N[C@@H](Cc1c[nH]c2ccccc12)C(=O)N[C@@H](CC(N)=O)C(=O)N[C@@H](CC(C)C)C(=O)N[C@H](C(=O)N[C@@H](CCCNC(=N)N)C(=O)N[C@H](C(=O)NCC(=O)N[C@@H](CC(C)C)C(=O)N[C@H](C(=O)N[C@@H](CCCNC(=N)N)C(N)=O)[C@@H](C)O)[C@@H](C)CC)C(C)C
IC50 [5]: 7.5 µM | IC50 [6]: > 50 µM

B4: Compound 113 (peptide)
peptide: Pentanoyl-WNLVRIGTTR-NH2
SMILES: CCCCC(=O)N[C@@H](Cc1c[nH]c2ccccc12)C(=O)N[C@@H](CC(N)=O)C(=O)N[C@@H](CC(C)C)C(=O)N[C@H](C(=O)N[C@@H](CCCNC(=N)N)C(=O)N[C@H](C(=O)NCC(=O)N[C@H](C(=O)N[C@H](C(=O)N[C@@H](CCCNC(=N)N)C(N)=O)[C@@H](C)O)[C@@H](C)O)[C@@H](C)CC)C(C)C
IC50 [6]: > 50 µM

B5: Compound 114 (peptide)
peptide: Pentanoyl-WNLVRIGTLR-NH2
SMILES: CCCCC(=O)N[C@@H](Cc1c[nH]c2ccccc12)C(=O)N[C@@H](CC(N)=O)C(=O)N[C@@H](CC(C)C)C(=O)N[C@H](C(=O)N[C@@H](CCCNC(=N)N)C(=O)N[C@H](C(=O)NCC(=O)N[C@H](C(=O)N[C@@H](CC(C)C)C(=O)N[C@@H](CCCNC(=N)N)C(N)=O)[C@@H](C)O)[C@@H](C)CC)C(C)C
IC50 [6]: > 50 µM

SGLAPTVSDS [SEQ ID NO 375]
ELISA [3]: 0.55 | s/n [3]: 4.33 | ELISA [4]: 0.119 | s/n [4]: 1.23

SGDTRSQLSH [SEQ ID NO 376]
ELISA [3]: 1.24 | s/n [3]: 11.3 | ELISA [4]: 2.57 | s/n [4]: 11.9

SGTPEMPAML [SEQ ID NO 374]
ELISA [3]: 2.25 | s/n [3]: 8.06 | ELISA [4]: 3.01 | s/n [4]: 5.74

Ac-DLMPWNLVRIGLLR-NH2 [Compound 35]
IC50 [5]: 4.8 µM | IC50 [6]: > 50 µM

Ac-DLMPWNLVRAGLLR-NH2 [Compound 58]
IC50 [5]: 49.5 µM | IC50 [6]: > 50 µM

Ac-DLMPWNLVRIALLR-NH2 [Compound 57]
IC50 [5]: > 49.5 µM | IC50 [6]: > 50 µM

Ac-DLMPWNLVRIGLLA-NH2 [Compound 54]
IC50 [5]: 15.4 µM | IC50 [6]: > 50 µM

Ac-DLMPANLVRIGLLR-NH2 [Compound 41]
IC50 [5]: 49.5 µM | IC50 [6]: > 50 µM

Ac-DLMPWNLARIGLLR-NH2 [Compound 60]
IC50 [5]: 19.2 µM | IC50 [6]: > 50 µM

Ac-DLMPWNLVRIGALR-NH2 [Compound 56]
IC50 [5]: 17.1 µM | IC50 [6]: > 50 µM

Ac-DLMAWNLVRIGLLR-NH2 [Compound 42]
IC50 [5]: 28.5 µM | IC50 [6]: > 50 µM

Ac-DAMPWNLVRIGLLR-NH2 [Compound 44]
IC50 [5]: 6.9 µM | IC50 [6]: > 50 µM

Ac-DLMPWNAVRIGLLR-NH2 [Compound 61]
IC50 [5]: 49.5 µM | IC50 [6]: > 50 µM

Ac-DLMPWALVRIGLLR-NH2 [Compound 62]
IC50 [5]: 49.5 µM | IC50 [6]: > 50 µM

Ac-DLMPWNLVAIGLLR-NH2 [Compound 59]
IC50 [5]: 49.5 µM | IC50 [6]: > 50 µM

Ac-DLAPWNLVRIGLLR-NH2 [Compound 43]
IC50 [5]: 8.19 µM | IC50 [6]: > 50 µM

SGPRTYLRGLVD [SEQ ID NO 366]
ELISA [3]: 0.375 | s/n [3]: 3.44 | ELISA [4]: 0.355 | s/n [4]: 3.1

SGCWTYLRGGCSVT [SEQ ID NO 373]
ELISA [3]: 0.569 | s/n [3]: 5.37 | ELISA [4]: 0.487 | s/n [4]: 4.39

SGMVYVDRGVRVFT [SEQ ID NO 368]
ELISA [3]: 1.01 | s/n [3]: 10.2 | ELISA [4]: 0.893 | s/n [4]: 8.5

SGVCSDHYIGGKEVRC [SEQ ID NO 378]
ELISA [4]: 1.12 | s/n [4]: 6.19

SGNALWNHDRLT [SEQ ID NO 379]
ELISA [3]: 0.665 | s/n [3]: 7.07 | ELISA [4]: 0.591 | s/n [4]: 6.42

SGAGKLDLSG [SEQ ID NO 377]
ELISA [3]: 1.75 | s/n [3]: 4.17 | ELISA [4]: 2.87 | s/n [4]: 11.1

SGRNGSGYINRGIEIW [SEQ ID NO 380]
ELISA [3]: 0.638 | s/n [3]: 5.5 | ELISA [4]: 0.447 | s/n [4]: 3.85

SGGCVKYRGSVSCQESKT [SEQ ID NO 369]
ELISA [3]: 0.378 | s/n [3]: 3.37 | ELISA [4]: 0.373 | s/n [4]: 3.32

SGSYRGAWSVFGGSTD [SEQ ID NO 372]
ELISA [3]: 1.04 | s/n [3]: 7.68 | ELISA [4]: 1.09 | s/n [4]: 5.15

SGEHQFYSYRGVDVYR [SEQ ID NO 370]
ELISA [3]: 0.461 | s/n [3]: 3.71 | ELISA [4]: 0.458 | s/n [4]: 1.45

SGNCWSSLRGICENLG [SEQ ID NO 367]
ELISA [3]: 0.601 | s/n [3]: 5.2 | ELISA [4]: 0.609 | s/n [4]: 1.47

SGACLNHFVSGNMIRC [SEQ ID NO 371]
ELISA [3]: 0.649 | s/n [3]: 5.55 | ELISA [4]: 0.607 | s/n [4]: 5.19
